Assay results reported in paper PMC6521605, “Structural insights into nanoRNA degradation by human Rexo2” (RNA, 2019).
Positions count from the first letter of the chain named. Names may count otherwise.

Assays:
[1] = molecular target: T1, Rexo2 H194A H194A (Homo sapiens) (UniProt Q9Y3B8); assay: fluorescence polarization; details: 50 mM EDTA, Hill coefficient 2.3, FP: 10 nM Cy3-oligonucleotide, 50 mM Tris-HCl pH 7.5, 50 mM NaCl, 15 min at 25 C, crystals: 0.2 M ammonium citrate dibasic, 20% PEG 3350, pH 5.1 …
T1 sequence: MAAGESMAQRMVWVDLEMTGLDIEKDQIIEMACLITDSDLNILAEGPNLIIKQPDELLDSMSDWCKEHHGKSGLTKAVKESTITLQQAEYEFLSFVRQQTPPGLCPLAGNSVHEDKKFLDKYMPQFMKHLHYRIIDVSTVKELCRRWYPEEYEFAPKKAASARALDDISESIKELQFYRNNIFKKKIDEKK

[2] = molecular target: the molecule itself; assay: SEC-MALS; purified His-tag-free Rexo2 (residues 33-223); MW of ~44 kDa against 22.436 kDa calculated for a protomer; conditions not given
Rexo2 H194A [3] = molecular target: T2, Rexo2 H194A (Homo sapiens, UniProt Q9Y3B8 33-223, H194A); assay: fluorescence polarization; 50 mM EDTA; Hill coefficient 1.4; FP: 10 nM Cy3-oligonucleotide, 50 mM Tris-HCl pH 7.5, 50 mM NaCl, 50 mM EDTA, 15 min at 25 C; crystals: 0.2 M ammonium citrate dibasic, 20% PEG 3350, pH 5.1, room temperature; details: protein: recombinant; tags: N-terminal 6xHis removed by thrombin; chain copies: 2; label: 5'-Cy3; single strand
T2 sequence: T1 sequence

Rexo2 H194A [4] = molecular target: T2, Rexo2 H194A; assay: fluorescence polarization; 50 mM EDTA; Hill coefficient 3.5; Results sentence calls it 12-nt, legend and Methods 11-nt; FP: 10 nM Cy3-oligonucleotide, 50 mM Tris-HCl pH 7.5, 50 mM NaCl, 50 mM EDTA, 15 min at 25 C; crystals: 0.2 M ammonium citrate dibasic, 20% PEG 3350, pH 5.1, room temperature; details: protein: recombinant; tags: N-terminal 6xHis removed by thrombin; chain copies: 2; label: 5'-Cy3; single strand
Rexo2 H194A [5] = molecular target: T2, Rexo2 H194A; assay: fluorescence polarization; 50 mM EDTA; FP: 10 nM Cy3-oligonucleotide, 50 mM Tris-HCl pH 7.5, 50 mM NaCl, 50 mM EDTA, 15 min at 25 C; crystals: 0.2 M ammonium citrate dibasic, 20% PEG 3350, pH 5.1, room temperature; details: protein: recombinant; tags: N-terminal 6xHis removed by thrombin; chain copies: 2; label: 5'-Cy3; single strand
Rexo2 D199A = molecular target: T3, Rexo2 D199A (Homo sapiens, UniProt Q9Y3B8 33-223, D199A); assay: X-ray crystallography; 2 Mg2+ in active site; pH 5.1; FP: 10 nM Cy3-oligonucleotide, 50 mM Tris-HCl pH 7.5, 50 mM NaCl, 50 mM EDTA, 15 min at 25 C; crystals: 0.2 M ammonium citrate dibasic, 20% PEG 3350, pH 5.1, room temperature; details: protein: recombinant; tags: N-terminal 6xHis removed by thrombin; chain copies: 2; single strand
T3 sequence: T1 sequence with A162H, D167A

Rexo2 wild type = molecular target: T4, Rexo2 wild type (Homo sapiens, UniProt Q9Y3B8 33-223); assay: X-ray crystallography; no Mg2+ added, two endogenous Mg2+ at partial occupancy; pH 5.1; FP: 10 nM Cy3-oligonucleotide, 50 mM Tris-HCl pH 7.5, 50 mM NaCl, 50 mM EDTA, 15 min at 25 C; crystals: 0.2 M ammonium citrate dibasic, 20% PEG 3350, pH 5.1, room temperature; details: protein: recombinant; tags: N-terminal 6xHis removed by thrombin; chain copies: 2; single strand
T4 sequence: T1 sequence with A162H

Work on 2-nt RNA A2 yielded a Kd [1] of 24.4 nM.

B1: human RNA exoribonuclease 2 (Rexo2), wild type, residues 33-223 (enzyme, UniProt Q9Y3B8 33-223, looked up)
chain: T1 sequence with A162H
notes: His tag removed with Thrombin (pET28a, NdeI/SalI); a few vector residues may be left at the N-terminus after cleavage (surmise); Calculated MW of a protomer 22.436 kDa; also called wild-type Rexo2; small fragment nuclease; source: E. coli BL21-CodonPlus (DE3) RIPL, purified (HisTrap HP, Thrombin, HisTrap flow-through, Superdex 75); not shown: His6, N-terminal, cleaved
With B1 the “stoichiometry N” value [2] was 2.

B2: human Rexo2-D199A mutant, residues 33-223 (enzyme, UniProt Q9Y3B8 33-223, looked up)
chain: T1 sequence with A162H, D167A
notes: Made by site-directed mutagenesis from the wild-type construct; PDB 6J7Y holds the wild-type parent; source: E. coli BL21-CodonPlus (DE3) RIPL, purified (HisTrap HP, Thrombin, HisTrap flow-through, Superdex 75); not shown: His6, N-terminal, cleaved
For B2, the “stoichiometry N” value [2] was 2.

B3: human Rexo2-H194A mutant, residues 33-223 (enzyme, UniProt Q9Y3B8 33-223, looked up)
chain: T1 sequence
notes: human Rexo2, residues 33-223, general base residue H194 replaced by Ala; Made by site-directed mutagenesis from the wild-type construct; PDB 6J7Y holds the wild-type parent; also called H194A Rexo2 mutant; source: E. coli BL21-CodonPlus (DE3) RIPL, purified (HisTrap HP, Thrombin, HisTrap flow-through, Superdex 75); not shown: His6, N-terminal, cleaved
B3 was tested, and the “stoichiometry N” value [2] was 2.

Work on AAAAA (ssRNA) [5-nt RNA A5] yielded a Kd (Rexo2 H194A [3]) of 52.1 nM.

In the case of AGCGCAGUACC (ssRNA) [11-nt RNA], the Kd (Rexo2 H194A [4]) is reported as 44.3 nM.

TTT (ssDNA) [3-nt DNA T3] showed a Kd (Rexo2 H194A [5]) of 29.9 nM.

Molecule TTTTT (ssDNA) [5-nt DNA T5 (Cy3)] has a Kd (Rexo2 H194A [5]) of 51.8 nM.

TTTTTTTTTTTT (ssDNA) [12-nt DNA T12] was tested, and the Kd (Rexo2 H194A [5]) was 52.2 nM.

UUUUUUUUUUUU (ssRNA) [U12 RNA]: binds (Rexo2 D199A).

TTTTT (ssDNA) [T5 DNA (crystal)]: binds (Rexo2 wild type).

TTTTTTTTTT (ssDNA) [T10 DNA (crystal)]: binds (Rexo2 D199A).
